Reference: article PMC10547193

Columns and labels:
[1] = target: CVA10-WT viral particles (coxsackievirus A10 prototype strain Kowalik, mature virion) (coxsackievirus A10 (strain Kowalik))
[2] = target: CVA10 escape mutant N2142D+N3183Y (coxsackievirus A10 strain Kowalik with VP2 N142D and VP3 N183Y) (coxsackievirus A10 (strain Kowalik))
[3] = target: CVA10-N142A viral particles (coxsackievirus A10 strain Kowalik with VP2 N142A) (coxsackievirus A10 (strain Kowalik))

B1: human KRM1-Fc (ectodomain of human KREMEN1 fused to the Fc portion of human IgG1) (Fc fusion)
chain: APSPGLGPECFTANGADYRGTQNWTALQGGKPCLFWNETFQHPYNTLKYPNGEGGLGEHNYCRNPDGDVSPWCYVAEHEDGVYWKYCEIPACQMPGNLGCYKDHGNPPPLTGTSKTSNKLTIQTCISFCRSQRFKFAGMESGYACFCGNNPDYWKYGEAASTECNSVCFGDHTQPCGGDGRIILFDTLVGACGGNYSAMSSVVYSPDFPDTYATGRVCYWTIRVPGASHIHFSFPLFDIRDSADMVELLDGYTHRVLARFHGRSRPPLSFNVSLDFVILYFFSDRINQAQGFAVLYQAVKEELPQERPAVNQTVAEVITEQANLSVSAARSSKVLYVITTSPSHPPQTVPG
modifications: biotin (EZ-Link Sulfo-NHS-LC-LC-Biotin) in the ELISA
neutralization concentration (100% protection from CPE) of KRM1-Fc against CVA10 prototype strain Kowalik in RD cells [1]: 12.5 nM | change of the neutralization concentration of KRM1-Fc against the mutant relative to CVA10-WT (standard neutralization assay, RD cells) [2]: > 128 times | resistance to neutralization by KRM1-Fc relative to rescued CVA10-WT (neutralization assay, RD cells) [3]: 64 fold
